B1: Ribose-phosphate pyrophosphokinase 1 (Homo sapiens), P60891 (parent)
chain: MPNIKIFSGSSHQDLSQKIADRLGLELGKVVTKKFSNQETCVEIGESVRGEDVYIVQSGCGEINDNLMELLIMINACKIASASRVTAVIPCFPYARQDKKDKSRAPISAKLVANMLSVAGADHIITMDLHASQIQGFFDIPVDNLYAEPAVLKWIRENISEWRNCTIVSPDAGGAKRVTSIADRLNVDFALIHKERKKANEVDRMVLVGDVKDRVAILVDDMADTCGTICHAADKLLSAGATRVYAILTHGIFSGPAISRINNACFEAVVVTNTIPQEDKMKHCSKIQVIDISMILAEAIRRTHNGESVSYLFSHVPL
B2: Probable thioesterase PNKD (Homo sapiens), Q8N490 (parent)
chain: MAAVVAATALKGRGARNARVLRGILAGATANKASHNRTRALQSHSSPEGKEEPEPLSPELEYIPRKRGKNPMKAVGLAWYSLYTRTWLGYLFYRQQLRRARNRYPKGHSKTQPRLFNGVKVLPIPVLSDNYSYLIIDTQAQLAVAVDPSDPRAVQASIEKEGVTLVAILCTHKHWDHSGGNRDLSRRHRDCRVYGSPQDGIPYLTHPLCHQDVVSVGRLQIRALATPGHTQGHLVYLLDGEPYKGPSCLFSGDLLFLSGCGRTFEGNAETMLSSLDTVLGLGDDTLLWPGHEYAEENLGFAGVVEPENLARERKMQWVQRQRLERKGTCPSTLGEERSYNPFLRTHCLALQEALGPGPGPTGDDDYSRAQLLEELRRLKDMHKSK
partner: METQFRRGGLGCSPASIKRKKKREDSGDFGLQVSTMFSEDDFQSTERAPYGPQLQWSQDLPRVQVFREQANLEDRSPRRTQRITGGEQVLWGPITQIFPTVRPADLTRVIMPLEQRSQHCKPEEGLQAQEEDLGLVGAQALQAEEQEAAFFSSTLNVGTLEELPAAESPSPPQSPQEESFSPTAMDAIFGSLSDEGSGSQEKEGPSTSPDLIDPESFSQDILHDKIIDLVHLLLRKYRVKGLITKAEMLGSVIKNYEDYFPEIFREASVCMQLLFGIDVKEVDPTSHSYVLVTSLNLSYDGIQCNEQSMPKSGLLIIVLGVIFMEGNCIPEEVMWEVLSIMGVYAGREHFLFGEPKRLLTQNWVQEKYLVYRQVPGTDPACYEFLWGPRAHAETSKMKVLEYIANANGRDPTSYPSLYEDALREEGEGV
B3: EF-hand domain-containing family member C2 (Homo sapiens), Q5JST6 (parent)
chain: MALPLLPGNSFNRNVGKEKFHKSQHWGFCNNVMMLVSDEKPGIGGEPLLGQKIKPKCSIYPKGDGSDVPSWVAFDKQVLSFDAYLEEEVLDKSQTNYRIRYYKIYFYPEDDTIQVNEPEVKNSGLLQGTSIRRHRITLPPPDEDQFYTVYHFNVGTEVVFYGRTFKIYDCDAFTRNFLRKIGVKVNPPVQCPEDPYMKIRREVVEHVEPLRPYESLDTLKQFLQYHGKILCFFCLWDDSVSMFGDRRELILHYFLCDDTIEIKELLPHSSGRDALKMFLRRSKLPKNCPPRVYQPGQITDRAVLNSYGDFIKNQADGYLFDRYKLGKVDQEFYKDSDLSLGVTINVWGRKVLLYDCDEFTKSYYKSKYGIENFTSVSCKPPSPPPKIERKFPPYNGFGSEEDSLRNCIDLKPTPHRRNFKKFMEKDSYGSKSNILRFFAKLVTDKCVDLDRMFVISYYLGDDTISVFEPIERNSGIAGGMFLKRSRVKKPGQEVFKSELSEYIKAEELYIGVTVNVNGYLFRLLNADEYTLNYMEQNTDKYPFSNLKLALQKLKQEEGKSRELKQVFKAADSKHTNMVDYNTFRDILMSLTVGNLAEQEFVTIARHYRVPEGTCSDMDFLIALAHEKFKKNMFENFDTFIYSCVYEDREKKNVLPTKDIKRLCKSSRLPLSDDLLESLLSRFEDSEKQIDYKSFFSALNWRKNPVPELQPASYLKERCEDVWLGMPSPIPAKYIDYWTFLKDAFGLEEE

Variants of: B1
Conditions: with gors2_human GORASP2, Q9H8Y8

| effect of a mutation on the interaction | Variant |
| --- | --- |
| with no effect | MPNIKIFSGSSHQDLSQKIADRLGLELGKVVTKKFSNQETCVEIGESVRGEDVYIVQSGCGEINDNLMELLIMINACKIASASRVTAVIPCFPYARQDKKDKSRAPISAKLVANMLSVAGADHIITMDLHASQIQGFFDIPVDNLYAEPAVLKWIRENISEWRNCTIVSPDAGGAKRVTSIAHRLNVDFALIHKERKKANEVDRMVLVGDVKDRVAILVDDMADTCGTICHAADKLLSAGATRVYAILTHGIFSGPAISRINNACFEAVVVTNTIPQEDKMKHCSKIQVIDISMILAEAIRRTHNGESVSYLFSHVPL [D183H] |
| with no effect | MPNIKIFSGSSHQDLSQKIADRLGLELGKVVTKKFSNQETCVDIGESVRGEDVYIVQSGCGEINDNLMELLIMINACKIASASRVTAVIPCFPYARQDKKDKSRAPISAKLVANMLSVAGADHIITMDLHASQIQGFFDIPVDNLYAEPAVLKWIRENISEWRNCTIVSPDAGGAKRVTSIADRLNVDFALIHKERKKANEVDRMVLVGDVKDRVAILVDDMADTCGTICHAADKLLSAGATRVYAILTHGIFSGPAISRINNACFEAVVVTNTIPQEDKMKHCSKIQVIDISMILAEAIRRTHNGESVSYLFSHVPL [E43D] |

Variants of: B1
Conditions: with prps2_human PRPS2, P11908

| effect of a mutation on the interaction | Variant |
| --- | --- |
| disrupting interaction strength | MPNIKIFSGSSHQDLSQKIADRLGLELGKVVTKKFSNQETCVEIGESVRGEDVYIVQSGCGEINDNLMELLIMINACKIASASRVTAVIPCFPYARQDKKDKSRAPISAKLVANMLSVAGADHIITMDLHASQIQGFFDIPVDNLYAEPAVLKWIRENISEWRNCTIVSPDAGGAKRVTSIAHRLNVDFALIHKERKKANEVDRMVLVGDVKDRVAILVDDMADTCGTICHAADKLLSAGATRVYAILTHGIFSGPAISRINNACFEAVVVTNTIPQEDKMKHCSKIQVIDISMILAEAIRRTHNGESVSYLFSHVPL [D183H] |
| disrupting interaction strength | MPNIKIFSGSSHQDLSQKIADRLGLELGKVVTKKFSNQETCVDIGESVRGEDVYIVQSGCGEINDNLMELLIMINACKIASASRVTAVIPCFPYARQDKKDKSRAPISAKLVANMLSVAGADHIITMDLHASQIQGFFDIPVDNLYAEPAVLKWIRENISEWRNCTIVSPDAGGAKRVTSIADRLNVDFALIHKERKKANEVDRMVLVGDVKDRVAILVDDMADTCGTICHAADKLLSAGATRVYAILTHGIFSGPAISRINNACFEAVVVTNTIPQEDKMKHCSKIQVIDISMILAEAIRRTHNGESVSYLFSHVPL [E43D] |

Variants of: B1
Conditions: with gors2_human GORASP2, Q9H8Y8
Remark: another data set of the same source

| effect of a mutation on the interaction | Variant |
| --- | --- |
| with no effect | MPNIKIFSGSSHQDLSQKIADRLGLELGKVVTKKFSNQETCVEIGESVRGEDVYIVQSGCGEINDNLMELLIMINACKIASASRVTAVIPCFPYARQDKKDKSRAPISAKLVANMLSVAGADHIITMDLHASQIQGFFDIPVDNLYAEPAVLKWIRENISEWRNCTIVSPDAGGAKRVTSIADRLNVDFALIHKERKKANEVHRMVLVGDVKDRVAILVDDMADTCGTICHAADKLLSAGATRVYAILTHGIFSGPAISRINNACFEAVVVTNTIPQEDKMKHCSKIQVIDISMILAEAIRRTHNGESVSYLFSHVPL [D203H] |

Variants of: B1
Conditions: with prps2_human PRPS2, P11908
Remark: another data set of the same source

| effect of a mutation on the interaction | Variant |
| --- | --- |
| disrupting interaction strength | MPNIKIFSGSSHQDLSQKIADRLGLELGKVVTKKFSNQETCVEIGESVRGEDVYIVQSGCGEINDNLMELLIMINACKIASASRVTAVIPCFPYARQDKKDKSRAPISAKLVANMLSVAGADHIITMDLHASQIQGFFDIPVDNLYAEPAVLKWIRENISEWRNCTIVSPDAGGAKRVTSIADRLNVDFALIHKERKKANEVHRMVLVGDVKDRVAILVDDMADTCGTICHAADKLLSAGATRVYAILTHGIFSGPAISRINNACFEAVVVTNTIPQEDKMKHCSKIQVIDISMILAEAIRRTHNGESVSYLFSHVPL [D203H] |

Variants of: B2
Conditions: with magab_human MAGEA11, P43364

| effect of a mutation on the interaction | Variant |
| --- | --- |
| with no effect | MAAVVAATALKGRGARNARVLRGILAGATANKASHNRTRALQSHSSPEGKEEPEPLSPELEYIPRKRGKNPMKAVGLAWYSLYTRTWLGYLFYRQQLRRARNRYPKGHSKTQPRLFNGVKVLPIPVLSDNYSYLIIDTQAQLAVAVDPSDPRAVQASIEKEGVTLVAILCTHKHWDHSGGNRDLSRRHRDCRVYGSPQDGIPYLTHPLCHQDVVSVGRLQIRALATPGHTQGHLVYLLDGEPYKGPSCLFSGDLLFLSGCGRTFEGNAETMLSSLDTVLGLGDDTLLWPGHEYAEENLGFAGVVEPENLARERKMQWVQRQRLERKGTCPSTLGEERSYNPFLRTHCLALQEALGPGPGPTGDDDYSRAQLLEELRQLKDMHKSK [R377Q] |

Variants of: B3
Conditions: with plod3_human PLOD3, O60568
Chain of plod3_human PLOD3, O60568 (O60568 whole entry): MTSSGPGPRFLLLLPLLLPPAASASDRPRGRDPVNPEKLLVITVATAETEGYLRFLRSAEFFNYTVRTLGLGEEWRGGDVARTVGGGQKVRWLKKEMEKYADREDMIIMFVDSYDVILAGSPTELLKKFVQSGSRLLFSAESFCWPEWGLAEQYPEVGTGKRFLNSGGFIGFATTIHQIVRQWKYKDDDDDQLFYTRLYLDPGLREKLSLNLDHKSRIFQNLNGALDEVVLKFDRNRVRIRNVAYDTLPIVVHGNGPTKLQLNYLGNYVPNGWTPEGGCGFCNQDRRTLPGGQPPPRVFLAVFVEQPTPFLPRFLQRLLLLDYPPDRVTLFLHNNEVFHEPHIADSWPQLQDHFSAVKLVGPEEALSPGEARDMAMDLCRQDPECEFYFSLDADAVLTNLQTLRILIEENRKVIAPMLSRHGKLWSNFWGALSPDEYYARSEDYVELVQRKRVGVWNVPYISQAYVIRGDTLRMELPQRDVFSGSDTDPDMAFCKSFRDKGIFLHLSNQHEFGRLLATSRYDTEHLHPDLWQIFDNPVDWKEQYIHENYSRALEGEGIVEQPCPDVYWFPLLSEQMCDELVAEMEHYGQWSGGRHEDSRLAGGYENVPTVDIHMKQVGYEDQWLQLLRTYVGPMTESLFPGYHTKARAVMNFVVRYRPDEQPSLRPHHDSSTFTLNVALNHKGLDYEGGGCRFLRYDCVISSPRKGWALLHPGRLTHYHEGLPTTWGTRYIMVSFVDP

| effect of a mutation on the interaction | Variant |
| --- | --- |
| disrupting interaction strength | N31S |

Variants of: B3
Conditions: with ptk6_human PTK6, Q13882

| effect of a mutation on the interaction | Variant |
| --- | --- |
| disrupting interaction strength | N31S |

Variants of: B3
Conditions: with ercc3_human ERCC3, P19447
Chain of ercc3_human ERCC3, P19447 (P19447 whole entry): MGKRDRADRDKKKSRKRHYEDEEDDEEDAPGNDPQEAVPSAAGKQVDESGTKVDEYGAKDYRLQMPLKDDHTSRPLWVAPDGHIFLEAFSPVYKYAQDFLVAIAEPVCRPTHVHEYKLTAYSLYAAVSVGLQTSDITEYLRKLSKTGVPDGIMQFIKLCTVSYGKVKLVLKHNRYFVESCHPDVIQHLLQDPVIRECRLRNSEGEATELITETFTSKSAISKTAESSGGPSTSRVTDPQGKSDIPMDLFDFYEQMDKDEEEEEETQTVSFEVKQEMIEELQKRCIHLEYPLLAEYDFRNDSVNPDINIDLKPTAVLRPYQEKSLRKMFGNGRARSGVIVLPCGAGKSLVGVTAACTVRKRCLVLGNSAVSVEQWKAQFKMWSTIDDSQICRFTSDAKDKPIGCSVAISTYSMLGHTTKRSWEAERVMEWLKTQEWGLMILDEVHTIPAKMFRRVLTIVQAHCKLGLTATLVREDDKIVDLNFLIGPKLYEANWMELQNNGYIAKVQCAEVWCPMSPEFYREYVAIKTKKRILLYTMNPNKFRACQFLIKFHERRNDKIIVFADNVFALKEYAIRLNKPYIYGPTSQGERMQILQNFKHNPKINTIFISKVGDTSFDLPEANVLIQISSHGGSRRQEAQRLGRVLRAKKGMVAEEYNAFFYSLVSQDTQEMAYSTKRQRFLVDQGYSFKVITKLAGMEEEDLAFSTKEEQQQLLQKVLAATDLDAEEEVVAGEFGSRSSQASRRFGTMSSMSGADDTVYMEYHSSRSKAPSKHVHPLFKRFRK

| effect of a mutation on the interaction | Variant |
| --- | --- |
| disrupting interaction strength | N31S |

Variants of: B3
Conditions: with mk09_human MAPK9, P45984

| effect of a mutation on the interaction | Variant |
| --- | --- |
| disrupting interaction strength | N31S |

Variants of: B3
Conditions: with ercc3_human ERCC3, P19447
Remark: another data set of the same source

| effect of a mutation on the interaction | Variant |
| --- | --- |
| with no effect | V376I |

Variants of: B3
Conditions: with ptk6_human PTK6, Q13882
Remark: another data set of the same source

| effect of a mutation on the interaction | Variant |
| --- | --- |
| with no effect | V376I |

Variants of: B3
Conditions: with mk09_human MAPK9, P45984
Remark: another data set of the same source

| effect of a mutation on the interaction | Variant |
| --- | --- |
| with no effect | V376I |

Variants of: B3
Conditions: with plod3_human PLOD3, O60568
Remark: another data set of the same source

| effect of a mutation on the interaction | Variant |
| --- | --- |
| with no effect | V376I |

From IntAct's records for PubMed 31515488
